7 molecules from patent US20250197448A1 (published 2025) can be followed below.

The term Kd denotes the equilibrium constant for the complex coming apart.

Starred links: 1 amine or outer side, 2 acyl side, 3 side chain; linkers in the order of their positions; H or OH if unused. Positions of bridges follow the written chain, without caps; N, C: chain ends. Non-standard residues stand in square brackets, D forms with d. No end group written: not given here. O2beY = O-(2-bromoethyl)-tyrosine (p-2beF), reacts with Cys to form a thioether, O=C([C@H](Cc1ccc(OCCBr)cc1)N[*:1])[*:2]; pCaaF = p-(2-chloroacetamido)-phenylalanine, O=C(CCl)Nc1ccc(C[C@H](N[*:1])C(=O)[*:2])cc1

For one test, the target named is Indian Hedgehog (Ihh) (human, UniProt Q14623 28-202). As to the kind of experiment: immobilized Ihh binding assay; FIG. 13C.
In a further test the target is Sonic Hedgehog (Shh) (human, UniProt Q15465 24-197). As to the kind of experiment: immobilized Shh binding assay; FIG. 13C.
A further test has as its target Desert Hedgehog (Dhh) (human, UniProt O43323 23-198). Put plainly: immobilized Dhh binding assay; FIG. 13C.
Test [1] addresses T1, PD-L1 (Programmed Death-Ligand 1), recombinant, His-tagged (human, UniProt Q9NZQ7 18-134).
T1 chain: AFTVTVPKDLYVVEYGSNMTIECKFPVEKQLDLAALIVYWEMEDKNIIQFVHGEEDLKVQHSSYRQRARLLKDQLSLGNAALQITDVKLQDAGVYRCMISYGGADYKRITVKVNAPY
As to the kind of experiment: in vitro PD-L1 binding assay.

In another test the target is cCLP002(pCmF). Put plainly: in vitro PD-L1 binding assay.
Another test has as its target cCLP002(pCaaF). Put plainly: in vitro PD-L1 binding assay.
Another test has as its target cRK10(pCmF). As to the kind of experiment: in vitro PD-L1 binding assay.
Test [2] deals with T1, PD-L1 (Programmed Death-Ligand 1), …. As to the kind of experiment: in vitro PD-L1 binding assay; FIG. 15A.
Test [3] has the same target. Put plainly: in vitro PD-L1 binding assay.

Indian Hedgehog (Ihh), sequence (Q14623 28-202): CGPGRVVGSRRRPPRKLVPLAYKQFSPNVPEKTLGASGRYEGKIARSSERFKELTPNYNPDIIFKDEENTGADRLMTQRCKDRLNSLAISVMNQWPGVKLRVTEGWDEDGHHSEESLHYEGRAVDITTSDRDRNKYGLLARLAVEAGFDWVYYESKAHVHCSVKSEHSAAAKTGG

Turning to DYKDDDDKGSGSTLSW[O2beY]EAMDMCTSSQQQQQQ-{Fc-H6} (Fc fusion, thioether 17-23; also: dimeric through the Fc) [L2-m5-Tras-Fc], the figures for the dissociation constant (Kd) in the test with Indian Hedgehog (Ihh), in the test with Sonic Hedgehog (Shh) and with Desert Hedgehog (Dhh) were 8 nM, 8 nM and 9 nM, respectively.

In the case of DYKDDDDKGSGSTYLCGAISLA[pCaaF]KAQIKESLGSGSGS-{Fc-H6} (Fc fusion, thioether 16-23) [FLAG-cRK10-(GS)3-Tras-Fc-His], the Kd in [1] came out at 88 nM.

B1: PD-L1 (ligand)
chain: AFTVTVPKDLYVVEYGSNMTIECKFPVEKQLDLAALIVYWEMEDKNIIQFVHGEEDLKVQHSSYRQRARLLKDQLSLGNAALQITDVKLQDAGVYRCMISYGGADYKRITVKVNAPY
For B1, the dissociation constant (Kd) was greater than 15000 nM with cCLP002(pCmF), 87000 nM in the test with cCLP002(pCaaF) and greater than 100000 nM with cRK10(pCmF).

As to DYKDDDDKGSGSTYLCGAISLA[pCaaF]KAQIKESLEAAAK-{Fc-H6} (Fc fusion, thioether 16-23) [FLAG-cRK10-EAAAK-Tras-Fc-His], the Kd in test [1] was 88 nM.

On to TYLCGAISLA[pCaaF]KAQIKESL (thioether 4-11) [cyclic peptide cRK10 (pCaaF)], for which, in test [2], the Kd turned out to be 12000 nM.

DYKDDDDKGSGSTYLCGAISLA[pCaaF]KAQIKESLPAPAP-{Fc-H6} (Fc fusion, thioether 16-23) [FLAG-cRK10-PAPAP-Tras-Fc-His]: in test [1], the dissociation constant (Kd) was 90 nM.

Turning to DYKDDDDKGSGSWHFS[pCaaF]NWRWLPCQQQQQQ (Fc fusion, thioether 17-24 (inferred); not fully specified (C-terminus)) [cCLP003 (pCaaF)-Tras-Fc], in test [3], the Kd was 238 nM.
